According to article PMC5400565, “Real-time near-infrared fluorescence imaging using cRGD-ZW800-1 for intraoperative visualization of multiple cancer types” (Oncotarget, 2017):

What was measured:
BxPC-3 tumors and organs = assay: Ex vivo biodistribution, BxPC-3 model; assay type: in vivo, mice; details: 4 h post injection
Procedure: After imaging, mice were sacrificed and OSC-19 and BxPC-3 tumors were quickly frozen in isopentane at -80°C for histological evaluation. Tissues were sectioned at 10 μm and fluorescence imaging was performed using fluorescence microscopy (Nikon eclipse e800, Nikon, Amsterdam, The Netherlands). All histologic sections were stained with standard hematoxylin-eosin stain (HE). Organs of mice with colorectal and pancreatic cancer were collected and imaged using the Pearl® to evaluate biodistribution.
(§1) Mice were administered with 0.25 (HT-29 model only), 1.0, 10, or 30 nmol cRGD-ZW800-1 to evaluate tumor signals, biodistribution, and to calculate TBRs (n = 3 per dose group). At 4 h (BxPC-3 model) and 24 h (HT-29 model) after injection, mice were fully dissected and fluorescence intensity of their organs was measured.
Mice bearing orthotopic OSC-19 tumors (n = 2) were administrated with 10 nmol cRGD-ZW800-1 and imaged at 4 h. Mice bearing orthotopic MCF-7 tumors (n = 2) were injected with 10 nmol cRGD-ZW800-1 and imaged at 0.5, 1, 2, 4, 6, 8, 24, and 48 h post injection. One mouse with 2 MCF-7 tumors was administered with 10 nmol cRGD-ZW800-1 and imaged at 4 h post injection while its skin was partially removed. In vivo TBRs were calculated by dividing the mean fluorescence signals of tumors by the mean of surrounding tissue. Ex vivo organ-to-tumor ratios were calculated by dividing the fluorescence intensity of the organ by that of the tumor.

Serotonin channels 5-HT3 = molecular target: T1, Serotonin channels 5-HT3 (Homo sapiens, UniProt P46098); assay: Off-target screening (Eurofins Cerep), 5-HT3; assay type: binding
T1 construct: Eurofins Cerep SA (contract screen)

Acetylcholinesterase = molecular target: T2, Acetylcholinesterase (Homo sapiens, UniProt P22303); assay: Off-target screening (Eurofins Cerep), acetylcholinesterase; assay type: biochemical
T2 construct: Eurofins Cerep SA (contract screen)

COX1 = molecular target: T3, COX1 (Homo sapiens, UniProt P23219); assay: Off-target screening (Eurofins Cerep), COX1; assay type: biochemical
T3 construct: Eurofins Cerep SA (contract screen)

HT-29 colorectal tumors = assay: NIR fluorescence imaging, HT-29 colorectal tumors, dose-ranging; assay type: in vivo, mice
Procedure: To induce subcutaneous tumors, colorectal cancer cells (HT-29) were injected at 4 sites on the back (500,000 cells per spot). Subsequently, these colorectal tumor cells were transplanted on the colon of other mice, as described by Tseng et al.. Approximately 500,000 pancreatic tumor cells (BxPC-3) were injected into the pancreas, as previously described by Kim et al.. Approximately 40,000 oral tumor cells (OSC-19) were injected in the tongue, as previously described by van Driel et al.. Approximately 500,000 breast tumor cells (MCF-7) were injected in both sides of the mammary fat pad to induce breast cancer tumors.
All animals were imaged using a Pearl® imager (LI-COR, Lincoln, NE) and an original FLARE® prototype. Animals with HT-29 tumors were imaged at 4 and 24 h post injection; animals with BxPC-3 and OSC-19 tumors at 4 h only. Animals with MCF-7 tumors were imaged at 0.5, 1, 2, 4, 6, 8, 24 and 48 h post injection. […] TBRs were calculated by dividing the tumor signal by the background signal. […]
as §1

Adrenergic β1 = molecular target: T4, Adrenergic β1 (Homo sapiens, UniProt P08588); assay: Off-target screening (Eurofins Cerep), β1; assay type: binding
T4 construct: Eurofins Cerep SA (contract screening)

Na+ channel (site 2) = assay: Off-target screening (Eurofins Cerep), Na+ channel; assay type: binding
Excerpt: Off-target interactions are binding of tracers to other components on the cell surface than the actual target site. These non-specific interactions are often of low affinity and easily missed, but can have significant effects. We outsourced the screening for in vitro for off-target interactions of cRGD-ZW800-1 to Eurofins Cerep SA, Le bois l’Evêque, France. They assessed the percentage of inhibition of a reference compound in 44 selected targets, including G protein-coupled receptors (GPCRs), transporters, ion channels, nuclear receptors, kinases and other non-kinase enzymes. These targets were recommended by four major pharmaceutical companies. The complete list is included in Supplementary Table 1 of the Supplementary Data. Each assay was performed twice using 10 μM cRGD-ZW800-1 and a reference compound. Inhibition higher than 50% was considered to represent a significant effect of cRGD-ZW800-1. Results showing between 20% and 50% were considered weak to moderate effects, while lower than 20% was not considered significant and mostly attributable to variability of the signal around the control level.

[1] = Pharmacokinetics in mice without tumors; assay type: in vivo
Procedure: cRGD-ZW800-1 was diluted in 0.05 mM HEPES buffered mouse serum to the concentrations 5.00, 4.50, 4.00, 3.50, 3.00, 2.50, 2.00, 1.50, 1.00, 0.50, 0.25, 0.13, 0.06, 0.03, and 0.02 μM. A calibration curve was created by measuring each concentration in 60 μL capillary tubes (Hirschmann® Laborgeräte GmbH and co. KG, Eberstadt, Germany) using the FLARE® with exposure times of: 1, 2, 5, 10, 25, 50, 100, 200, 500, 1000, and 2000 msec. Data were plotted in fluorescence intensity over concentration (μM) (Supplementary Figure 2, Supplementary Data). For each exposure time, the formula of the linear regression line was calculated. Subsequently, 5 mice without tumors were injected with 10 nmol cRGD-ZW800-1 via the lateral tail vein. The contralateral lateral tail vein was used to draw blood on the time points -5, 1, 6, 10, 20, 30, 40, 50, 60, 90, 120, and 240 min. post injection. Blood samples were absorbed using 60 μL capillary tubes and immediately measured using the FLARE® with the same exposure times. Saturated images and those under the detection limit were excluded from analysis. Each measurement was calculated back to its concentration using the matching formulas (Supplementary Figure 3, Supplementary Data). The mean of each formula output was used as the concentration. Data was analyzed using NONMEM® software (Icon Development Solutions, Ellicott City, MD, U.S.A.). Data were plotted in logarithmic and linear concentration (μM) over time (min).

[2] = read-out: % Inhibition of Control Specific Binding
[3] = read-out: % of Control Specific Binding Mean
[4] = 10 μM cRGD-ZW800-1, format H, performed twice, read-out: % Inhibition of Control Specific Binding
[5] = 10 μM, mean of 2, read-out: % of Control Specific Binding Mean
[6] = mice, 10 nmol i.v., mean ± SD, n = 5

T3 sequence (P23219 24-599): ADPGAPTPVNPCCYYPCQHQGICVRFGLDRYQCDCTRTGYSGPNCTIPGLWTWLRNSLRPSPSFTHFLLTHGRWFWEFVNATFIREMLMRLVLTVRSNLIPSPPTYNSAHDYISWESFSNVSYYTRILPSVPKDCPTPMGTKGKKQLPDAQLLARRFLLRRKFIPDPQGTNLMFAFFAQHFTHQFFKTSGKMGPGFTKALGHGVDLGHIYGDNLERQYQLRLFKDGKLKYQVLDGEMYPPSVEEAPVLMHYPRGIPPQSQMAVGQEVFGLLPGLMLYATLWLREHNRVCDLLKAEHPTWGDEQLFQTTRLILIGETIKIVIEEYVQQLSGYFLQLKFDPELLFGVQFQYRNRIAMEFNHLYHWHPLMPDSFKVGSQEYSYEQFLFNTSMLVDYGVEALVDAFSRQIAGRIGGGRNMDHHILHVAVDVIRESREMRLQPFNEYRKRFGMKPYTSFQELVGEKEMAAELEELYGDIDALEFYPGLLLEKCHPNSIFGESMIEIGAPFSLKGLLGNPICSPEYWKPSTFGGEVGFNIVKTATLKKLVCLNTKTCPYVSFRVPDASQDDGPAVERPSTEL
T2 sequence (P22303 32-614): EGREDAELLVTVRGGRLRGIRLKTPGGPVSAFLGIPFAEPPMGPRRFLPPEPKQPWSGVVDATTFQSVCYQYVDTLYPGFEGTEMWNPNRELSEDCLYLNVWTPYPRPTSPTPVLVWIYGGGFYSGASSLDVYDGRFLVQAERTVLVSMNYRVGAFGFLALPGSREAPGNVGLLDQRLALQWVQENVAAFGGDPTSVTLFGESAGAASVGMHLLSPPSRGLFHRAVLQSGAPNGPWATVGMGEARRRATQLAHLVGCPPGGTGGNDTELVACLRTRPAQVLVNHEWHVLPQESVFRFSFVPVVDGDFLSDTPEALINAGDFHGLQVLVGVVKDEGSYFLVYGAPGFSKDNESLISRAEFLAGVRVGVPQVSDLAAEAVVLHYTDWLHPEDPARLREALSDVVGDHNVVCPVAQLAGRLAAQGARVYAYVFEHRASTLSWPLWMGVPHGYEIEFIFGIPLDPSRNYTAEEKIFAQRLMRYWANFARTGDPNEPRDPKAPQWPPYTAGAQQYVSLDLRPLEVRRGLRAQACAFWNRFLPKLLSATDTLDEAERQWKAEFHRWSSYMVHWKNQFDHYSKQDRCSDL
T1 sequence (P46098 24-478): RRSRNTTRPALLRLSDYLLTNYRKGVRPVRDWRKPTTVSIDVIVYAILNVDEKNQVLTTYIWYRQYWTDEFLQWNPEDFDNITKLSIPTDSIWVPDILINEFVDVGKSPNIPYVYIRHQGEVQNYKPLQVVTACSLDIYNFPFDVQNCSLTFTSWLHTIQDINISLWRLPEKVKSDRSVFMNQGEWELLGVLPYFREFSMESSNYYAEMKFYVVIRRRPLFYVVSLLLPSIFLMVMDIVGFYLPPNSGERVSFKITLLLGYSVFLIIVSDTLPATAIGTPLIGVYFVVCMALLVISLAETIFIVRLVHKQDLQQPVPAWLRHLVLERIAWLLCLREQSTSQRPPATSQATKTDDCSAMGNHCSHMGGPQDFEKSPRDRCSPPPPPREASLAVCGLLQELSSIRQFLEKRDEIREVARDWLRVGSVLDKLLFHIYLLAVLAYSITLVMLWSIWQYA
T4 sequence (P08588 whole entry): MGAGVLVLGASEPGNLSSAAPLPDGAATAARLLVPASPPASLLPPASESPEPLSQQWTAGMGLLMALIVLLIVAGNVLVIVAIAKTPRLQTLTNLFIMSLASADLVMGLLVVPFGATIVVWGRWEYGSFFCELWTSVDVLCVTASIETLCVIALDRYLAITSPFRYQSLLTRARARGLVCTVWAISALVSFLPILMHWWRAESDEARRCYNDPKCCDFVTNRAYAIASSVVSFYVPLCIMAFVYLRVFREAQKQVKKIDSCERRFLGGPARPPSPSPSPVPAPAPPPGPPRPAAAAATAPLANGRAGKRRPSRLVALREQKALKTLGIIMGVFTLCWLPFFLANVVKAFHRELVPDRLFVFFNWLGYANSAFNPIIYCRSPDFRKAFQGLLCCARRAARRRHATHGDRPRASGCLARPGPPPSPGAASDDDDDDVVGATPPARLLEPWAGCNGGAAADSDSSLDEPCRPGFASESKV

CC1(C)C(/C=C/C2=C(Oc3ccc(CCC(=O)NCCCC[C@@H]4NC(=O)[C@@H](Cc5ccc(O)cc5)NC(=O)[C@H](CC(=O)O)NC(=O)CNC(=O)[C@H](CCCNC(=N)N)NC4=O)cc3)C(=C/C=C3/N(CCC[N+](C)(C)C)c4ccc(S(=O)(=O)O)cc4C3(C)C)/CCC2)=[N+](CCC[N+](C)(C)C)c2ccc(S(=O)(=O)O)cc21 [cRGD-ZW800-1]
tumor fluorescence relative to skin, intestines, lungs, muscle, gallbladder, brain, and blood (BxPC-3 tumors and organs; all doses, ex vivo, Pearl): at least twice as fluorescent | fluorescence signals in kidneys relative to tumors (BxPC-3 tumors and organs; ex vivo): equal to or higher than tumors | fluorescence ratios of large intestines and liver compared with tumors (BxPC-3 tumors and organs; ex vivo organ-to-tumor ratio): around half | inhibition at 10 µM (Serotonin channels 5-HT3; [2]): 12% | remaining activity at 10 µM (Serotonin channels 5-HT3; [3]): 87.7% | inhibition at 10 µM (Acetylcholinesterase; [4]): 2% | remaining activity at 10 µM (Acetylcholinesterase; [5]): 98.4% | inhibition at 10 µM (COX1; [4]): -8% | remaining activity at 10 µM (COX1; [5]): 108% | TBRs at 4 and 24 h post injection (HT-29 colorectal tumors; HT-29, 1, 10 and 30 nmol dose groups, n = 3 per dose group): > 2 | optimal dose (HT-29 colorectal tumors; mice, doses of 0.25, 1.0, 10, 30 nmol explored, Pearl and FLARE): 10 nmol | inhibition at 10 µM (Adrenergic β1; [2]): 18% | remaining activity at 10 µM (Adrenergic β1; [3]): 82.3% | % Inhibition of Control Specific Binding (Na+ channel (site 2); 10 μM cRGD-ZW800-1, format An, performed twice): 20% | % of Control Specific Binding Mean (Na+ channel (site 2); 10 μM, mean of 2): 79.9% | Clearance ([1]; mice, 10 nmol i.v., mean systemic clearance ± SD, n = 5): 0.25 ± 0.06 mL/min | Distribution (α) half-life [1, 6]: 0.243 ± 0.0283 h | Terminal (β) half-life [1, 6]: 1.18 ± 0.157 h | maximal concentration in serum ([1]; mice, 10 nmol i.v., measured at 1 minute post injection, n = 5, fluorescence (FLARE) with calibration curve): 1.17 µM | AUC ([1]; mice, 10 nmol i.v., trapezoid rule, mean ± SD, n = 5): 38.9 ± 8.9 | Half-life ([1]; mice, blood, 10 nmol i.v., calculated via ln(2)/k10, mean ± SD, n = 5): 0.422 ± 0.107 h | Elimination (β) half-life ([1]; mouse no. 1): 1.08 h | Elimination (β) half-life ([1]; mouse no. 2): 1.42 h | Elimination (β) half-life ([1]; mouse no. 3): 1.14 h | Elimination (β) half-life ([1]; mouse no. 4): 1.25 h | Elimination (β) half-life ([1]; mouse no. 5): 1.03 h
